Consider 14 variants from the supplement of paper PMC12783771.

± gives the standard deviation of the averaged measurements.

The chains are these.
B1: library; numbered along this chain (parent)
chain: MNIQIGELAKRTACPVVTIRFYEQEGLLPPPGRSRGNFRLYGEEHVERLQFIRHCRSLDMPLSDVRTLLSYRKRPDQDCGEVNMLLDEHIRQVESRIGALLELKHHLVELREACSGARPAQSCGILQGLSDCVCDTRGTTAHPSD

Variants of B1 are the subject of data set [1]. Nature of the data set: sfGFP reporter fluorescence (15 h) (µM FITC); higher = higher leak. The settings on record: library round: Round 1; ligand: none. As to the method:
(§1)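 Cell-free biosensing: 1 µL Echo-assembled CFE reactions with linear PbrR variant templates (5 nM) and pPbrR-sfGFP reporter, with 1 µM Pb, 30 µM Zn or no ligand; endpoint sfGFP fluorescence after 15 h at 30 °C calibrated as µM FITC. Round 1 ML-predicted PbrR mutants; 3 biological replicates.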

Variants of B1 are the subject of data set [2]. Kind of data set: sfGFP reporter fluorescence (15 h) (µM FITC); higher = stronger transcriptional activation. The settings on record: library round: Round 1. As to the method:
as §1

As to MNIQIGELAKRTACPVVTIRFYEQEGLLPPPGRSRGNFRLYGEEHVERLQFIRHCRSLDMPLSDVRTLLSYRKRPDQDCGEVTMLLDEHIRQVESRIGALLELKHHLVELLEACSGARPAQSCGILQGLSDCVCDTRGTTAHPSD, the figures for the sfGFP reporter fluorescence in data set [1], in data set [2] (ligand: 1 µM Pb) and in data set [2] (ligand: 30 µM Zn) were 0.0571 ± 0.0031, 0.0683 ± 0.0036 and 0.167 ± 0.011, respectively.

Consider MNIQIGELAKRTACPVVTIRFYEQEGLLPPPARSRGNFRLYGEEHVERLQFIRHCRSLDMPLSDVRTLLSYRKRPDQDCGEVNMLLDEHIRQVESRIGALLELKHHLVELREACSGARPAQSCGILQGLSCCVCDTRGTTAHPSD, for which the figures for the sfGFP reporter fluorescence in data set [1], in data set [2] (ligand: 1 µM Pb) and in data set [2] (ligand: 30 µM Zn) were 0.0613 ± 0.0022, 0.0707 ± 0.0055 and 0.147 ± 0.0097, respectively.

As to MNIQIGELAKRTACPVVTIRFYEQEGLLPPPGRSRFNFRLYGEEHVERLQFIRHCRSLDLNLSDVRTLLSYRKRPDQDCGEVNMLLDEHIRQVESRIGALLELKHHLVELREACSGARPAQSCGILQGLSDCVCDTRGTTAHPSD, the sfGFP reporter fluorescence in data set [1] was 0.0662 ± 0.0022; in data set [2] (ligand: 1 µM Pb), 0.0735 ± 0.0027; in data set [2] (ligand: 30 µM Zn), 0.143 ± 0.007.

On to MNIQIGELAKRTACPVVTIRFYEQEGLLPPPGRSRGNFRLYGEEHVERLQFIRHCRSLDMPLSDVRTLLSYRKRPDQDCGEVYMLLDEHIRQVESRIGALLELKHHLVELAEACSGARPAQSCGILQGLSDCVCDTRGTTAHPSD, for which the sfGFP reporter fluorescence in data set [1] was determined as 0.064 ± 0.00092; in data set [2] (ligand: 1 µM Pb) it was 0.0721 ± 0.0067; in data set [2] (ligand: 30 µM Zn) it was 0.0742 ± 0.00085.

MNIQIGELAKRTACPVVTIRFYEQEGLLPPPGRSRGNFRLYGEEHVERLQFIRHCRSLDMPLSDVRTLLSYRKRPDQDCGEVNMLLDEHIRQVESRIGALLELKHHLVELREACSGARPAQSCGLLQGLSCCVCDTRGTTAHPSD: the sfGFP reporter fluorescence in data set [1] amounted to 0.06 ± 0.0018; in data set [2] (ligand: 1 µM Pb), 0.0617 ± 0.0015; in data set [2] (ligand: 30 µM Zn), 0.0593 ± 0.0014.

For MNIQIGELAKRTACPVVTIRFYEQEGLLPPPGRSRGNFRLYGEEHVERLQFIRHCRSLDMNISDVRTLLSYRKRPDQDCGEVNMLLDEHIRQVESRIGALLELKHHLVELREACSGARPAQSCGILQGLSDCVCDTRGTTAHPSD, the sfGFP reporter fluorescence in data set [1] is 0.0668 ± 0.0015; in data set [2] (ligand: 1 µM Pb), 0.0856 ± 0.0013; in data set [2] (ligand: 30 µM Zn), 0.379 ± 0.015.

Take MNIQIGELAKRTACPVVTIRFYEQEGLLPPPGRSRGNFRLYGEEHVERLQFIRHCRSLDMPLSDVRTLLSYRKRPDQDCGEVNMLLDEHIRQVESRIGALLELAHHLVELREACSGARPAQSCGILQMLSDCVCDTRGTTAHPSD: the sfGFP reporter fluorescence is 0.0657 ± 0.0021 in data set [1], 0.109 ± 0.01 in data set [2] (ligand: 1 µM Pb) and 0.897 ± 0.013 in data set [2] (ligand: 30 µM Zn).

Consider MNIQIGELAKRTACPVVTIRFYEQEGLLPPPGRSRGNFRLYGEEHVERLQFIRHCRSLDMPLSDVRTLLSYRKRPDQDCGEVTMLLDEHIRQVESRIGALLELKHHLVELREACSGARPAQSCGILQGLSSCVCRTRGTTAHPSD, for which the results for the sfGFP reporter fluorescence in data set [1], in data set [2] (ligand: 1 µM Pb) and in data set [2] (ligand: 30 µM Zn) were 0.064 ± 0.0013, 0.0955 ± 0.0087 and 0.21 ± 0.0094, respectively.

Turning to MNIQIGELAKRTACPVVTIRFYEQEGLLPPPGRSRGNFRLYGEEHVERLQFIRHCRSLDLLLSDVRTLLSYRKRPDQDCGEVNMLLDEHIRQVESRIGALLELKHHLVELREACSGARPAQSCGILQGLSDCVCDTRGTTAHPSD, the results for the sfGFP reporter fluorescence in data set [1], in data set [2] (ligand: 1 µM Pb) and in data set [2] (ligand: 30 µM Zn) were 0.0689 ± 0.00037, 0.081 ± 0.0019 and 0.156 ± 0.015, respectively.

As for MNIQIGELAKRTACPVVTIRFYEQEGLLPPPGRSRGNFRLYGEEHVERLQFIRHCRSLDMPLSDVRTLLSYRKRPDQDCGEVNMLLDEHIRQVESRIGALLELKHHLVELREACSGARPAQSCGILQGLSACVCATRGTTAHPSD, the sfGFP reporter fluorescence in data set [1] came to 0.077 ± 0.0023; in data set [2] (ligand: 1 µM Pb), 0.184 ± 0.0043; in data set [2] (ligand: 30 µM Zn), 2.2 ± 0.17.

In the case of MNIQIGELAKRTACPVVTIRFYEQEGLLPPPGRSRGNFRLYGEEHVERLQFIRHCRSLDMPLSDVRTLLSYRKRPDQDCGEVTMLLDEHIRQVESRTGALLELKHHLVELREACSGARPAQSCGILQGLSDCVCDTRGTTAHPSD, the figures for the sfGFP reporter fluorescence in data set [1], in data set [2] (ligand: 1 µM Pb) and in data set [2] (ligand: 30 µM Zn) were 0.06157 ± 0.00037, 0.0658 ± 0.0032 and 0.102 ± 0.0039, respectively.

As to MNIQIGELAKRTACPVVTIRFYEQEGLLPPPGRSRGNFRLYGEEHVERLQFIRHCRSLDMPLSDVRTLLSYRKRPDQDCGEVTMLLDEHIRQVESRIGALLELKHHLVLLREACSGARPAQSCGILQGLSDCVCDTRGTTAHRSD, the sfGFP reporter fluorescence in data set [1] is 0.0641 ± 0.00073; in data set [2] (ligand: 1 µM Pb) it was 0.0812 ± 0.0015; in data set [2] (ligand: 30 µM Zn), 0.183 ± 0.0048.

With MNIQIGELAKRTACPVVTIRFYEQEGLLPPPGRSRGNFRLYGEEHVERLQFIRHCRSLDMPLSDVRTLLSYRKRPDQDCGEVNMLLDEHIRQVESRIGALLELKHHLVELREACSGARPAQSCGILQGLSDCVCRTRGTTAHASD, the figures for the sfGFP reporter fluorescence in data set [1], in data set [2] (ligand: 1 µM Pb) and in data set [2] (ligand: 30 µM Zn) were 0.0577 ± 0.0043, 0.0707 ± 0.0053 and 0.317 ± 0.04, respectively.

With MNIQIGELAKRTACPVVTIRFYEQEGLLPPPGRSRGNFRLYGEEHVERLQFIRHCRSLDMPLSDVRTLLSYRKRPDQDCGEVTMLLDEHIRQVESRIGALLELKHHLVELRFACSGARPAQSCGILQGLSDCVCDTRGTTAHPSD, the sfGFP reporter fluorescence in data set [1] came to 0.0601 ± 0.0026; in data set [2] (ligand: 1 µM Pb), 0.0667 ± 0.0032; in data set [2] (ligand: 30 µM Zn), 0.0853 ± 0.0022.
